These are literature values, as cited in paper PMC7509490.

The target in this data set is G-actin (Oryctolagus cuniculus) (UniProt P68135).

As to Profilin (from UniProt P07274), the dissociation constant Kd was 200 nM.
